{"source": "paper PMC7761029", "about": "“Identifying Genes Involved in Alkaloid Biosynthesis in Vinca minor through Transcriptomics and Gene Co-Expression Analysis” (Biomolecules, 2020)", "proteins": {"B1": {"name": "Vm16OMT (Vinca minor) (protein)", "chain": "MDVQSDEFSKAQAHIWSQVLCHIPTATIKCAIELGIPDAIDNHGKAMTLAELTNSLPLINPSKAPFVRRLMRILVKNGFFSEQQITNDHIAYGLTPSSRILLKNEPLNLRGLVLANLDPSHMKSWVALSEWFQNDNEEAKTAFEIAHNGKNFWDYSAEDTEHAEIFNEAMASDSKLVSELLINTEYKLLFEGLTSMVDVGGGTGTIAKAIAKTFPNLNCTVFDLPHVVANLESMGNLEFVAGDMFVKIPPANAIFLKWILHDWNDEDCVKILKACKKAIPEKEKGGKVIVIDTVIGSKINDDESIKAQLSMDMGMMVDFASKERDEKEWASLFKEAGFSNYKIFPKLDFIRSVIEVYP"}}, "key": {"[1]": {"substrate": "[H][C@]12N3CC=C[C@@]1(CC)CC(C(=O)OC)=C1Nc4cc(O)ccc4[C@@]12CC3", "assay": "initial velocities of 16-methoxytabersonine formation, LC-MS, Michaelis-Menten non-linear regression", "assay_type": "biochemical, Vinca minor", "conditions": "fixed SAM, 0.2-100 µM substrate, 50 mM potassium phosphate pH 7, 25 mM ascorbic acid, 30 °C"}, "purified protein": {"substrate": "C[S+](CC[C@H](N)C(=O)O)C[C@H]1O[C@@H](n2cnc3c(N)ncnc32)[C@H](O)[C@@H]1O", "assay": "purified protein", "conditions": "methyl donor, fixed 16-hydroxytabersonine, 1-200 µM SAM, 50 mM potassium phosphate pH 7, 25 mM ascorbic acid, 30 °C"}}}
{"protein": "B1", "values": [{"measurement": "Km", "setting": "[1]", "result": "0.94 ± 0.06", "unit": "µM"}, {"measurement": "kcat", "setting": "[1]", "result": 0.0144, "unit": "s⁻¹"}, {"measurement": "Km", "setting": "purified protein", "result": "46.2 ± 6.1", "unit": "µM"}, {"measurement": "kcat", "setting": "purified protein", "result": 0.039, "unit": "s⁻¹"}]}
